Test results taken from publication PMC4867592, “Targeting multiple response regulators of Mycobacterium tuberculosis augments the host immune response to infection” (Scientific Reports, 2016).
Changes are numbered by the printed parent chain.

Columns and labels:
Assay in all cases: EMSA
[1] = molecular target: T1, RegX3 R202A R202A (UniProt P9WGL9)
T1 sequence: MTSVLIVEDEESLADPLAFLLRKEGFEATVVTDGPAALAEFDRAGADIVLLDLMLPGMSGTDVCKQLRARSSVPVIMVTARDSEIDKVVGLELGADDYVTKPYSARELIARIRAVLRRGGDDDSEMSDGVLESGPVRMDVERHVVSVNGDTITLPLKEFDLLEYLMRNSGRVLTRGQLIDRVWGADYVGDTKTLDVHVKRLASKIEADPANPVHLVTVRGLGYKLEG

[2] = molecular target: T2, RegX3 K204A K204A (UniProt P9WGL9)
T2 sequence: T1 sequence with A202R, K204A

[3] = molecular target: T3, RegX3 L201A L201A (UniProt P9WGL9)
T3 sequence: T1 sequence with L201A, A202R

Question: With “ACCGGCTTGGGACCGGCACCGCGGTACTGTGTGCGTTCGGCACCGCGCTGCACCCGCGGTTCGGGCCGGATTCGTCCGCGCGGCACCGCCGTTCGGGCGC (double strand) [ppK1 promoter fragment]” as the sequence, how does the binding [1] read?
Answer: binds

Question: And the binding [2]?
Answer: no binding

Question: And the binding [3]?
Answer: no binding
